Patent publication US20120316071A1
Each block holds one substance with its values, some of them ahead of it.

Assays:
[1] = target: Recombinant Human DLL4 (R&D Systems Cat#1506-D4/CF) (human) (UniProt Q9NR61); experiment: ECL multispot (MSD), 20 nM Fab
[2] = target: rHuman Notch-1/Fc Chimera, CF (R&D Systems Cat#3647-TK) (human) (UniProt P46531); experiment: ECL multispot (MSD), 20 nM Fab
[3] = target: rHuman P-Cadherin/Fc Chimera, CF (R&D Systems Cat#861-PC) (human) (UniProt P22223); experiment: ECL (MSD) multispot binding assay, antigen spotted on plate, 20 nM Fab
[4] = target: rHuman HGF R/c-MET/Fc Chimera, CF (R&D Systems Cat#358-MT/CF) (human) (UniProt P08581); experiment: as above
[5] = target: rHuman EGF R/Fc Chimera, CF (R&D Systems Cat#344-ER) (human) (UniProt P00533); experiment: ECL multispot (MSD), 20 nM Fab
[6] = target: rHuman ErbB2/Fc Chimera, CF (R&D Systems Cat#1129-ER) (human) (UniProt P04626); experiment: ECL multispot (MSD), 20 nM Fab
[7] = target: rHuman P-Cadherin/Fc Chimera, CF (R&D Systems Cat#861-PC) (human) (UniProt P22223); experiment: ECL multispot (MSD) binding assay, antigen spotted on plate, Fab in solution; blank spot 424
[8] = target: rHuman IGF-1 sR, CF (R&D Systems Cat#391-GR) (human) (UniProt P08069); experiment: as above
[9] = target: rHuman CD44/Fc Chimera, CF (R&D Systems Cat#3660-CD) (human) (UniProt P16070); experiment: as above
[10] = target: rHuman EGF R/Fc Chimera, CF (R&D Systems Cat#344-ER) (human) (UniProt P00533); experiment: as above
[11] = target: rHuman HGF R/c-MET/Fc Chimera, CF (R&D Systems Cat#358-MT/CF) (human) (UniProt P08581); experiment: as above
[12] = target: rHuman Notch-1/Fc Chimera, CF (R&D Systems Cat#3647-TK) (human) (UniProt P46531); experiment: as above
[13] = target: rHuman ErbB2/Fc Chimera, CF (R&D Systems Cat#1129-ER) (human) (UniProt P04626); experiment: as above
[14] = target: rHuman P-Cadherin/Fc Chimera, CF (R&D Systems Cat#861-PC) (human) (UniProt P22223); experiment: ECL multispot (MSD) binding assay, antigen spotted on plate, Fab in solution; blank spot 213
[15] = target: rHuman IGF-1 sR, CF (R&D Systems Cat#391-GR) (human) (UniProt P08069); experiment: as above
[16] = target: rHuman CD44/Fc Chimera, CF (R&D Systems Cat#3660-CD) (human) (UniProt P16070); experiment: as above
[17] = target: rHuman EGF R/Fc Chimera, CF (R&D Systems Cat#344-ER) (human) (UniProt P00533); experiment: as above
[18] = target: rHuman HGF R/c-MET/Fc Chimera, CF (R&D Systems Cat#358-MT/CF) (human) (UniProt P08581); experiment: as above
[19] = target: rHuman Notch-1/Fc Chimera, CF (R&D Systems Cat#3647-TK) (human) (UniProt P46531); experiment: as above
[20] = target: rHuman ErbB2/Fc Chimera, CF (R&D Systems Cat#1129-ER) (human) (UniProt P04626); experiment: as above
[21] = target: rHuman HGF R/c-MET/Fc Chimera (human) (UniProt P08581); experiment: ECL (MSD) multispot assay, antigen spotted; blank spot of this row 424
[22] = target: rHuman IGF-1 sR (insulin-like growth factor-1 soluble receptor) (human) (UniProt P08069); experiment: as above
[23] = target: rHuman P-Cadherin/Fc Chimera, CF (R&D Systems Cat#861-PC) (human) (UniProt P22223); experiment: ECL multispot (MSD) binding assay, antigen spotted on plate, Fab in solution; blank spot 240
[24] = target: rHuman IGF-1 sR, CF (R&D Systems Cat#391-GR) (human) (UniProt P08069); experiment: as above
[25] = target: rHuman CD44/Fc Chimera, CF (R&D Systems Cat#3660-CD) (human) (UniProt P16070); experiment: as above
[26] = target: rHuman EGF R/Fc Chimera, CF (R&D Systems Cat#344-ER) (human) (UniProt P00533); experiment: as above
[27] = target: rHuman HGF R/c-MET/Fc Chimera, CF (R&D Systems Cat#358-MT/CF) (human) (UniProt P08581); experiment: as above
[28] = target: rHuman Notch-1/Fc Chimera, CF (R&D Systems Cat#3647-TK) (human) (UniProt P46531); experiment: as above
[29] = target: rHuman ErbB2/Fc Chimera, CF (R&D Systems Cat#1129-ER) (human) (UniProt P04626); experiment: as above
[30] = target: rHuman HGF R/c-MET/Fc Chimera (human) (UniProt P08581); experiment: ECL (MSD) multispot assay, antigen spotted; blank spot of this row 223
[31] = target: rHuman Erythropoietin R/Fc Chimera (human) (UniProt P19235); experiment: as above
[32] = target: rHuman IGF-1 sR (insulin-like growth factor-1 soluble receptor) (human) (UniProt P08069); experiment: as above
[33] = target: rHuman CD44/Fc Chimera (human) (UniProt P16070); experiment: as above
[34] = target: rHuman Erythropoietin R/Fc Chimera, CF (R&D Systems Cat#963-ER) (human) (UniProt P19235); experiment: ECL (MSD) multispot binding assay, antigen spotted on plate, 20 nM Fab
[35] = target: rHuman CD44/Fc Chimera, CF (R&D Systems Cat#3660-CD) (human) (UniProt P16070); experiment: as above
[36] = target: rHuman HGF R/c-MET/Fc Chimera (human) (UniProt P08581); experiment: ECL (MSD) multispot assay, antigen spotted; blank spot of this row 284
[37] = target: rHuman Erythropoietin R/Fc Chimera (human) (UniProt P19235); experiment: as above
[38] = target: rHuman IGF-1 sR (insulin-like growth factor-1 soluble receptor) (human) (UniProt P08069); experiment: as above
[39] = target: rHuman HGF R/c-MET/Fc Chimera (human) (UniProt P08581); experiment: ECL (MSD) multispot assay, antigen spotted; blank spot of this row 236
[40] = target: rHuman Erythropoietin R/Fc Chimera (human) (UniProt P19235); experiment: as above
[41] = target: rHuman IGF-1 sR (insulin-like growth factor-1 soluble receptor) (human) (UniProt P08069); experiment: as above
[42] = target: rHuman CD44/Fc Chimera (human) (UniProt P16070); experiment: as above
[43] = target: rHuman Notch-1/Fc Chimera (human) (UniProt P46531); experiment: as above
[44] = target: rHuman IGF-1 sR, (IGF-1 sR), CF (R&D Systems Cat#391-GR) (human) (UniProt P08069); experiment: ECL multispot (MSD) binding assay, antigens spotted on plate, 20 nM Fab
[45] = target: Recombinant Human DLL4 (R&D Systems Cat#1506-D4/CF) (human) (UniProt Q9NR61); experiment: as above
[46] = target: rHuman CD44/Fc Chimera, CF (R&D Systems Cat#3660-CD) (human) (UniProt P16070); experiment: as above
[47] = target: rHuman Notch-1/Fc Chimera, CF (R&D Systems Cat#3647-TK) (human) (UniProt P46531); experiment: as above
[48] = target: rHuman HGF R/c-MET/Fc Chimera, CF (R&D Systems Cat#358-MT/CF) (human) (UniProt P08581); experiment: as above
[49] = target: rHuman CD44/Fc Chimera, CF (R&D Systems Cat#3660-CD) (human) (UniProt P16070); experiment: ECL multispot (MSD), 20 nM Fab

ECL signal ratio (column head gives no unit) [1]: 2.3
ECL signal ratio (column head gives no unit) [2]: 2.3
Substance: Fab VH3-23_IGHD2-21*01>3_IGHJ6*01 H100E/S108P/Y113G (EPG) & V2-13_IGLJ2*01

ECL signal/blank ratio [3]: 3.3
ECL signal/blank ratio [4]: 3.9
Substance: Fab VH3-23_IGHD2-21*01>3_IGHJ6*01 H100E/S108P/Y113G/Y110R & V2-13_IGLJ2*01

ECL signal ratio (column head gives no unit) [5]: 2.2
ECL signal ratio (column head gives no unit) [6]: 2.1
Substance: Fab VH3-23_IGHD2-21*01>3_IGHJ6*01 H100E/S108P/Y113G (EPG) Y109L & V2-13_IGLJ2*01

ECL signal [7]: 319
ECL signal [8]: 877
ECL signal [9]: 579
ECL signal [10]: 852
ECL signal [11]: 838
ECL signal [12]: 543
ECL signal [13]: 1100
ECL signal [14]: 226
ECL signal [15]: 781
ECL signal [16]: 540
ECL signal [17]: 768
ECL signal [18]: 867
ECL signal [19]: 437
ECL signal [20]: 1100
ECL signal [21]: 838
ECL signal [22]: 877
ECL signal [23]: 346
ECL signal [24]: 964
ECL signal [25]: 633
ECL signal [26]: 915
ECL signal [27]: 936
ECL signal [28]: 507
ECL signal [29]: 1070
Substance: Fab VH5-51_IGHD5-18*01>3_IGHJ4*01 G100K/G104T & V3-4_IGLJ1*01

ECL signal [30]: 933
ECL signal [31]: 458
ECL signal [32]: 908
ECL signal [33]: 545
Substance: Fab VH5-51_IGHD5-18*01>3_IGHJ4*01 G100K/G104T S84L & V3-4_IGLJ1*01

ECL signal/blank ratio [34]: 2.9
Substance: Fab VH3-23_IGHD2-21*01>3_IGHJ6*01 H100E/S108P/Y113G/Y111E & V2-13_IGLJ2*01

ECL signal/blank ratio [35]: 3.4
Substance: Fab VH3-23_IGHD2-21*01>3_IGHJ6*01 H100E/S108P/Y113G/Y111W & V2-13_IGLJ2*01

ECL signal [36]: 846
ECL signal [37]: 612
ECL signal [38]: 967
Substance: Fab VH5-51_IGHD5-18*01>3_IGHJ4*01 G100K/G104T D109A & V3-4_IGLJ1*01

ECL signal [39]: 811
ECL signal [40]: 484
ECL signal [41]: 914
ECL signal [42]: 577
ECL signal [43]: 505
Substance: Fab VH5-51_IGHD5-18*01>3_IGHJ4*01 G100K/G104T S84V & V3-4_IGLJ1*01

ECL multispot signal (ratio to blank; column not labelled) [44]: 2.3
ECL multispot signal (ratio to blank; column not labelled) [45]: 3.9
ECL multispot signal (ratio to blank; column not labelled) [46]: 2.1
ECL multispot signal (ratio to blank; column not labelled) [47]: 3.2
Substance: Fab VH3-23_IGHD2-21*01>3_IGHJ6*01 H100E/S108P/Y113G Y110W & V2-13_IGLJ2*01

ECL multispot signal (ratio to blank; column not labelled) [48]: 2.3
Substance: Fab VH3-23_IGHD2-21*01>3_IGHJ6*01 H100E/S108P/Y113G Y110N & V2-13_IGLJ2*01

ECL signal ratio (column head gives no unit) [1]: 4.3
ECL signal ratio (column head gives no unit) [49]: 2.4
Substance: Fab VH3-23_IGHD2-21*01>3_IGHJ6*01 H100E/S108P/Y113G (EPG) Y109W & V2-13_IGLJ2*01
